{
  "source": "paper PMC3536884",
  "target": "C9-tagged CCR5 (human) (UniProt P51681)",
  "sequence (P51681 whole entry)": "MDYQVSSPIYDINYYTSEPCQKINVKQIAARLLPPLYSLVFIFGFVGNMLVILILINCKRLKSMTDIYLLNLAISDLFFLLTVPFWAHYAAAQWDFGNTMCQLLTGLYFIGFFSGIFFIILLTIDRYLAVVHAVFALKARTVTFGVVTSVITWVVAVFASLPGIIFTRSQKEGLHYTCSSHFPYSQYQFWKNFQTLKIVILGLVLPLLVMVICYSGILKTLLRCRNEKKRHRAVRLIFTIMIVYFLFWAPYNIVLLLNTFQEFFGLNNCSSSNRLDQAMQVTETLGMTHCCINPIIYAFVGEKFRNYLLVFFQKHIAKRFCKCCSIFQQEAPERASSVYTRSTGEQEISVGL",
  "assay": "SPR",
  "data": [
    {"substance": "LukE (leukotoxin ED subunit E), His-tagged (natural protein)", "values": [
      {"measurement": "Kd", "result": 39.6, "unit": "nM"}
    ]}
  ]
}
